Reference: US20220356256A1 (published 2022)

Assays:
Assay in all cases: SPR
5048 Fz4 A11 = molecular target: 5048 Fz4 A11
5056 Fz4 B7 = molecular target: 5056 Fz4 B7
5039 Fz4 A2 = molecular target: 5039 Fz4 A2
5067 Fz4 C6 = molecular target: 5067 Fz4 C6
5054 Fz4 B5 = molecular target: 5054 Fz4 B5
5057 Fz4 B8 = molecular target: 5057 Fz4 B8
5045 Fz4 A8 = molecular target: 5045 Fz4 A8
5075 Fz4 D2 = molecular target: 5075 Fz4 D2
5074 Fz4 D1 = molecular target: 5074 Fz4 D1
5073 Fz4 C12 = molecular target: 5073 Fz4 C12

- Kd (5048 Fz4 A11): 3.71 nM
- Kd (5056 Fz4 B7): 1.14 nM
- Kd (5039 Fz4 A2): 2.57 nM
- Kd (5067 Fz4 C6): 1.63 nM
- Kd (5054 Fz4 B5): 2.16 nM
- Kd (5057 Fz4 B8): 2.56 nM
- Kd (5045 Fz4 A8): 1.3 nM
- Kd (5075 Fz4 D2): 1.19 nM
- Kd (5074 Fz4 D1): 3.61 nM
- Kd (5073 Fz4 C12): 0.422 nM
B1: FZD4 (Fc fusion)
chain: FGDEEERRCDPIRISMCQNLGYNVTKMPNLVGHELQTDAELQLTTFTPLIQYGCSSQLQFFLCSVYVPMCTEKINIPIGPCGGMCLSVKRRCEPVLKEFGFAWPESLNCSKFPPQNDHNHMCMEGPGDEEVPLPHKTPIQPGEE
